From US20140072613A1, “Compositions and Methods for Treating Cutaneous Scarring” (priority 2012, published 2014)

Assays:
Assay in all cases: cell-based or functional assay
VRK2(h) (human) = VRK2(h) (human) (UniProt Q86Y07)
IKKβ(h) (human) = target: T1, IKKβ(h) (human) (UniProt O14920)
T1 sequence (looked up): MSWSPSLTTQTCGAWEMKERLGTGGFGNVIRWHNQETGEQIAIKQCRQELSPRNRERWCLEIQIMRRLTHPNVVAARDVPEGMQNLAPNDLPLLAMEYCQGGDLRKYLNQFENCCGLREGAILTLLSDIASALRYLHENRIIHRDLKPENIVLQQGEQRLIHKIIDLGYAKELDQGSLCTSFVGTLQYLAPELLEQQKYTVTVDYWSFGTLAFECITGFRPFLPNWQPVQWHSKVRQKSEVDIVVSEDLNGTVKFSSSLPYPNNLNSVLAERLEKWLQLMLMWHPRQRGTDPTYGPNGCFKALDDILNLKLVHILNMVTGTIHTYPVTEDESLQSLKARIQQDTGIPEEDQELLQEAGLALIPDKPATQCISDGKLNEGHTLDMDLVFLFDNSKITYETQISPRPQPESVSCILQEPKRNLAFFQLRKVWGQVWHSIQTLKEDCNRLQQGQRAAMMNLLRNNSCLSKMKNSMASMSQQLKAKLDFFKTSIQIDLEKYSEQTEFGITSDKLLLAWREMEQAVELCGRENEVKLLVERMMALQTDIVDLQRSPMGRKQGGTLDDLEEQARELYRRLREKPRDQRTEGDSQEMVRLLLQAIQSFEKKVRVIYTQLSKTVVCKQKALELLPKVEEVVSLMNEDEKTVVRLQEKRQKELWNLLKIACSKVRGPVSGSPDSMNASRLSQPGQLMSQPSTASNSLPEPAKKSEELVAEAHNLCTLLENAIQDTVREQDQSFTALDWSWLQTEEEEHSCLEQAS

EphB2(h) (human) = EphB2(h) (human) (UniProt P29323)
Fes(h) (human) = Fes(h) (human) (UniProt P07332)
PKCµ(h) (human) = target: T2, PKCµ(h) (human) (UniProt Q15139)
T2 sequence (looked up): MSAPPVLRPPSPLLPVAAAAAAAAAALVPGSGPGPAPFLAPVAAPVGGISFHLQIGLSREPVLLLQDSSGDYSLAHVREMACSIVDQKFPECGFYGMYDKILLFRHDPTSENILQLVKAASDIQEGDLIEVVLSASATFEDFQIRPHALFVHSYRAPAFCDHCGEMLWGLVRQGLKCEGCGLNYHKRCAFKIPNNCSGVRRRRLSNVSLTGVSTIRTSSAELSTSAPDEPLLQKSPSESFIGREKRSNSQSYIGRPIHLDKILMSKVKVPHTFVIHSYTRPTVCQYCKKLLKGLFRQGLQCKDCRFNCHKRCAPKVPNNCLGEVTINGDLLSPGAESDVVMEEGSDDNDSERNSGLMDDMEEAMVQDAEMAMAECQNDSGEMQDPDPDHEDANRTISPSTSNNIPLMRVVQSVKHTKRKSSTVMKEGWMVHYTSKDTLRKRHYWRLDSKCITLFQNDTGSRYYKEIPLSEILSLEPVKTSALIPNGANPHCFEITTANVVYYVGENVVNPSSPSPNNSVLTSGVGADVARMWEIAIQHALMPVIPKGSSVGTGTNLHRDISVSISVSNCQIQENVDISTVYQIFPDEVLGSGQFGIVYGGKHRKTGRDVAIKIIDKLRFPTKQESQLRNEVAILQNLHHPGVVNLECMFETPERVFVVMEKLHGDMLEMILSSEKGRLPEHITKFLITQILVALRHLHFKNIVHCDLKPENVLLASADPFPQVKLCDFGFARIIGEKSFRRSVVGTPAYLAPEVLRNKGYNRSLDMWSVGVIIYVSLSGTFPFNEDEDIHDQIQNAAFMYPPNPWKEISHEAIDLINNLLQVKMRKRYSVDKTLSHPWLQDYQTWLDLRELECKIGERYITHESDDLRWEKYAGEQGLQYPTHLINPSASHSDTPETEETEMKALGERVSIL

EGFR(L861Q)(h) (human) = EGFR(L861Q)(h) (human) (UniProt P00533)
cKit(V560G)(h) (human) = cKit(V560G)(h) (human) (UniProt P10721)
ARK5(h) (human) = target: T3, ARK5(h) (human) (UniProt O60285)
T3 sequence (looked up): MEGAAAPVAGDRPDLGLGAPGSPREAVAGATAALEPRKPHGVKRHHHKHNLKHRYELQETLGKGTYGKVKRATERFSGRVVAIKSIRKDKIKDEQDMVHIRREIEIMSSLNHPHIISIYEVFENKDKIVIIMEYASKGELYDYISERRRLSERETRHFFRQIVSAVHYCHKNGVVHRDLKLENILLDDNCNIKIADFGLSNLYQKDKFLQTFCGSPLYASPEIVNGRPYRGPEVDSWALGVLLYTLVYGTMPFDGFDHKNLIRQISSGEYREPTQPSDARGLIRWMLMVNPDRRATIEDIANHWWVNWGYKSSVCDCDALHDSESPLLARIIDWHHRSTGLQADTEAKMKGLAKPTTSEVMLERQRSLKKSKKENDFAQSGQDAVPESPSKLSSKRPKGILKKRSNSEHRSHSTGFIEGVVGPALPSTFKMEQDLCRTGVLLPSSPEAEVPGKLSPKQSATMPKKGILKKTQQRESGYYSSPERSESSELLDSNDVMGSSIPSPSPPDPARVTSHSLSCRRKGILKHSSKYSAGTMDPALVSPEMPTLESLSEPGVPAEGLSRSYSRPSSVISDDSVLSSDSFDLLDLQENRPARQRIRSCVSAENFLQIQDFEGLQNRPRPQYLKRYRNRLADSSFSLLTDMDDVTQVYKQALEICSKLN

VRK2(h) (human), sequence (Q86Y07 whole entry): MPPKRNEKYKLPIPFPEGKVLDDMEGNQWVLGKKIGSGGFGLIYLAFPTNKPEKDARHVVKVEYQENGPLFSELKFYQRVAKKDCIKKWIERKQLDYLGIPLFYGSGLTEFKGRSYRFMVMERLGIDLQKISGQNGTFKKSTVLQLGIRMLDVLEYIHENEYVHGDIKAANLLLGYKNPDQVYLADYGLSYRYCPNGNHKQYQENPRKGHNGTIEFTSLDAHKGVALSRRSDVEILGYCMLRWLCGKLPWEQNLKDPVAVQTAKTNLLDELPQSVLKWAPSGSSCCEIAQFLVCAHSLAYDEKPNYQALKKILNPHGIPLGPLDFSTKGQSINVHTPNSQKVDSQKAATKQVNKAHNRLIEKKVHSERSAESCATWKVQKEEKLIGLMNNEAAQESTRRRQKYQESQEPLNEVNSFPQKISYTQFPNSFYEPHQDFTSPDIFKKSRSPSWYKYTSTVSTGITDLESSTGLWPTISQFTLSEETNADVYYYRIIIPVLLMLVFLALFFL
Fes(h) (human), sequence (P07332 whole entry): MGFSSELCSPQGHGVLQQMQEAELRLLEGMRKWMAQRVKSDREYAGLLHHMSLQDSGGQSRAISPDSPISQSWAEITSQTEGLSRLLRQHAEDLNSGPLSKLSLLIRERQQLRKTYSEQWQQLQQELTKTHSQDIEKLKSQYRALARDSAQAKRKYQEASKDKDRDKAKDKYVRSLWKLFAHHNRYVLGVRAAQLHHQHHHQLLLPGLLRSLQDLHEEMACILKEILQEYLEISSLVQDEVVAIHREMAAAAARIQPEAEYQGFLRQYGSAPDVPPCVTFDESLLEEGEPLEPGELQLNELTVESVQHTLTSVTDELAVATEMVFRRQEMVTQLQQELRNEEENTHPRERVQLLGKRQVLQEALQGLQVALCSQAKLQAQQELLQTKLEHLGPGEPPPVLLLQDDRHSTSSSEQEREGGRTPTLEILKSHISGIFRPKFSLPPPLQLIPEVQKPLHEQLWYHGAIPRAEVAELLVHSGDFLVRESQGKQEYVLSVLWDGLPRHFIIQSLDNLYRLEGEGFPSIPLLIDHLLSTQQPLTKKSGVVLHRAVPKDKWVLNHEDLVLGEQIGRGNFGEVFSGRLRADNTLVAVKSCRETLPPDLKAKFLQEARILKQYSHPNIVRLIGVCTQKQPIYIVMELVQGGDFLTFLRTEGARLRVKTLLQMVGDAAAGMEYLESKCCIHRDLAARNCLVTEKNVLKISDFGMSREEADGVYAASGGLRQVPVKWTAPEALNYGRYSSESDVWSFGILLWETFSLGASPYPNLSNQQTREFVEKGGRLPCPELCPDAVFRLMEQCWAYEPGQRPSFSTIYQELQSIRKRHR
EphB2(h) (human), sequence (P29323 565-986 limits assumed): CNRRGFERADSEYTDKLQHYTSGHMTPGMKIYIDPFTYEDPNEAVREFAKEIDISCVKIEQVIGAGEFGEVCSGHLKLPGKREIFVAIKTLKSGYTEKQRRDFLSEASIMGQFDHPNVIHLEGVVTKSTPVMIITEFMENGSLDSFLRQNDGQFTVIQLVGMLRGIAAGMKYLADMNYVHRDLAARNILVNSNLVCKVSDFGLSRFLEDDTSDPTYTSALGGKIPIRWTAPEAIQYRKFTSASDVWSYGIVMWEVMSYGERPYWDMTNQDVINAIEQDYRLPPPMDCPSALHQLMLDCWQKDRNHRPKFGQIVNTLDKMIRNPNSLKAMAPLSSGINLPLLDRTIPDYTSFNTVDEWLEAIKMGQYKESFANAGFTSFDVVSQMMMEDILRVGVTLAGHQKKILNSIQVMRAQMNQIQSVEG
cKit(V560G)(h) (human), sequence (P10721 544-976 V560G): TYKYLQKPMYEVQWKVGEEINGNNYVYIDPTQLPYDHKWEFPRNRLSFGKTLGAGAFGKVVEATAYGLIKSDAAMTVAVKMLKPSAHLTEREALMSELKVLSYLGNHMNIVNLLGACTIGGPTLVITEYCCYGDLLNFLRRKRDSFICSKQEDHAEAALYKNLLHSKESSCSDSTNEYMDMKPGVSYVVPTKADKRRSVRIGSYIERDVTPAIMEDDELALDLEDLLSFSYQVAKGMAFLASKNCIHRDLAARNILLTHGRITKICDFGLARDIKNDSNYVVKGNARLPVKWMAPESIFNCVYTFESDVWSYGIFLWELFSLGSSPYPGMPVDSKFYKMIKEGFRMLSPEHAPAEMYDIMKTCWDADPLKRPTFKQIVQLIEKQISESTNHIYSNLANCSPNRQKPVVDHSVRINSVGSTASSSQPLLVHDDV

MMI-0500 (peptide) gave a % activity, 100 µM (VRK2(h) (human)) of 169%, a % activity, 100 µM (IKKβ(h) (human)) of 71% and a % activity, 100 µM (EphB2(h) (human)) of 70%. The % activity, 100 µM (Fes(h) (human)) was 23%, the % activity, 100 µM (PKCµ(h) (human)) was 10% and the % activity, 100 µM (EGFR(L861Q)(h) (human)) was 15%. For the same substance, the % activity, 100 µM (cKit(V560G)(h) (human)) was 198% and the % activity, 100 µM (ARK5(h) (human)) was 20%.
